Reference: US20110223107A1 (ALETHIA BIOTHERAPEUTICS, published 2011)

T1: recombinant Fc-KAAG1 fusion protein (full-length KAAG1) (human, UniProt Q9UBP8 1-84, biotinylated with NHS-biotin (sites not given))
T1 construct: also called recombinant human KAAG1; not shown: human Fc domain encoded by expression plasmid pYD5; vector-encoded residues between the Fc and the BamHI cloning site of pYD5
T1 sequence: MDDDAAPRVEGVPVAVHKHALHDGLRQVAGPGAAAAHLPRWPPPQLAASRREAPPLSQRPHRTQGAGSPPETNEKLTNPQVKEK

T2: monomeric recombinant KAAG1 (Homo sapiens (Human), UniProt Q9UBP8 1-84, limits assumed)
T2 construct: Analyte of the Biacore experiment
T2 sequence: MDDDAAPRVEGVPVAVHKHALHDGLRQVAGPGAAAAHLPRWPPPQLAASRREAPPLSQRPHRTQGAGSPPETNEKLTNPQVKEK


Columns and labels:
[1] = molecular target: T1, recombinant Fc-KAAG1 fusion protein …; assay: ELISA on recombinant Fc-KAAG1
Experimental: The 96-well master plate of monoclonal preparations contained different concentrations of purified anti-KAAG1 Fabs in each well. A second stock master plate was prepared by diluting the Fabs to a final concentration of 10 μg/ml from which all subsequent dilutions were performed for ELISA measurements. To carry out the binding of Fc-KAAG1 to the monoclonal preparations, the Fc-KAAG1 was biotinylated with NHS-biotin (Pierce, Rockford, Ill.) and 10 ng/well was coated in a streptavidin 96-well plate. One nanogram of each Fab monoclonal preparation was added to each well and incubated at room temperature for 30 minutes. Bound antibody was detected with HRP-conjugated mouse anti-kappa light chain antibody in the presence of TMB liquid substrate (Sigma-Aldrich Canada Ltd., Oakville, ON) and readings were conducted at 450 nm in microtiter plate reader.
Since an antibody harboring effector functions was required, the h3D3 was assembled as a human IgG₁. ELISA-based assays were performed to directly compare the ability of the h3D3 […]. The methods used to perform these tests were as described in Example 3 using recombinant Fc-KAAG1.

[2] = molecular target: T2, monomeric recombinant KAAG1; assay: SPR (Biacore): antibody captured on immobilised anti-human Fc, monomeric recombinant KAAG1 injected, global 1:1 fit; average KD; humanized light + humanized heavy chain, 'HH'
Experimental: (§1) More precise measurements were conducted using Surface Plasmon Resonance (SPR) in a Biacore instrument. Kinetic analysis was used to compare the affinity of the chimeric 3D3 with the h3D3 as well as with hybrid antibodies encompassing different permutations of the light and heavy chains (see FIG. 18B). Briefly, anti-human Fc was immobilized on the Biacore sensor chip and chimeric or h3D3 was captured on the chip. Different concentrations of monomeric recombinant KAAG1 were injected and the data were globally fitted to a simple 1:1 model to determine the kinetic parameters of the interaction.

[3] = molecular target: T2, monomeric recombinant KAAG1; assay: SPR (Biacore), antibody captured by anti-human Fc, 1:1 fit
Experimental: as §1

[4] = molecular target: T2, monomeric recombinant KAAG1; assay: SPR (Biacore): antibody captured on immobilised anti-human Fc, monomeric recombinant KAAG1 injected, global 1:1 fit; average KD; chimeric light + humanized heavy chain, 'CH'
Experimental: as §1

| Binder | EC50 (read off the curve) [1] | Kd [2] | Ka [3] | koff [3] | kon [3] | Kd [4] |
| --- | --- | --- | --- | --- | --- | --- |
| humanized 3D3 anti-KAAG1 antibody (human IgG1) (antibody, V domains shown, The leader residues before them are left out; also called h3D3; HH) VH: EVQLVQSGAEVKKPGASVKVSCKASGYIFTDYEIHWVRQAPGQGLEWMGVIDPETGNTAFNQKFKGRVTITADTSTSTAYMELSSLTSEDTAVYYCMGYSDYWGQGTLVTVSS VL: DIVMTQSPDSLAVSLGERATINCKSSQSLLNSNFQKNFLAWYQQKPGQPPKLLIYFASTRESSVPDRFSGSGSGTDFTLTISSLQAEDVAVYYCQQHYSTPLTFGQGTKLEIKR | ~0.1 µg/mL | 0.439 nM | 2.28e+09 M⁻¹ | 0.00111 s⁻¹ | 2.53e+06 M⁻¹ s⁻¹ |  |
| 3D3 hybrid antibody: chimeric light chain expressed with the humanized heavy chain (antibody, human IgG1, V domains shown) VH: EVQLVQSGAEVKKPGASVKVSCKASGYIFTDYEIHWVRQAPGQGLEWMGVIDPETGNTAFNQKFKGRVTITADTSTSTAYMELSSLTSEDTAVYYCMGYSDYWGQGTLVTVSS VL: DIVMTQSPSSLAVSIGQKVTMNCKSSQSLLNSNFQKNFLAWYQQKPGQSPKLLIYFASTRESSIPDRFIGSGSGTDFTLTISSVQAEDLADYFCQQHYSTPLTFGAGTKLELKA |  |  | 1.98e+09 M⁻¹ | 0.00111 s⁻¹ | 2.2e+06 M⁻¹ s⁻¹ | 0.505 nM |
